Laboratory results published in patent US20160032001A1 (APEXIGEN, published 2016).
Like-named read-outs stand apart in the source and are kept apart here.

Columns and labels:
[1] = target: T1, RANKL expressed on the surface of 293 cells (UniProt O14788 1-317, limits assumed); assay: flow cytometry (MFI) on RANKL-transfected 293 cells
T1 construct: whole, on cells; also called RANKL-transfected 293 cells; cells expressing RANKL
T1 sequence (looked up): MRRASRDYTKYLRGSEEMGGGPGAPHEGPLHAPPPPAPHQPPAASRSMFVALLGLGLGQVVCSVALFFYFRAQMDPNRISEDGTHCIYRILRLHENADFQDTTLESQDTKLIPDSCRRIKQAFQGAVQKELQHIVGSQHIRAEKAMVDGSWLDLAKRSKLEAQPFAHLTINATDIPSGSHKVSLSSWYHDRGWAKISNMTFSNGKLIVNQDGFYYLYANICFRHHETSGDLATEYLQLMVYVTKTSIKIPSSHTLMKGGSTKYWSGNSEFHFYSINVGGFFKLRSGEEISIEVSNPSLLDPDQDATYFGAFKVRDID

human RANKL protein [2] = target: T2, human RANKL protein (human, UniProt O14788 140-317, limits assumed); assay: competition ELISA: RANKL (0.5 ug/ml) pre-incubated with the antibody, then binding to coated RANK (8 ug/ml) detected; blocked partner RANK [table at the lower right]
T2 sequence (looked up): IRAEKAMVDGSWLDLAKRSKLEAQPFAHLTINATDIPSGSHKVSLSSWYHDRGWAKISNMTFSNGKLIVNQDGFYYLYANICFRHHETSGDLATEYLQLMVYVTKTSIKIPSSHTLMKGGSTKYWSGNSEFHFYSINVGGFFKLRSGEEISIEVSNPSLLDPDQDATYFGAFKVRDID

[3] = target: T1, RANKL expressed on the surface of 293 …; assay: flow cytometry (MFI) on RANKL-transfected 293 cells; remark: listed apart in the source
human RANKL protein [4] = target: T2, human RANKL protein; assay: surface plasmon resonance
human RANKL protein [5] = target: T2, human RANKL protein; assay: cell-based or functional assay
[6] = target: T1, RANKL expressed on the surface of 293 …; assay: flow cytometry (MFI) on RANKL-transfected 293 cells; remark: listed apart in the source
human RANKL protein [7] = target: T2, human RANKL protein; assay: competition ELISA: RANKL (0.5 ug/ml) pre-incubated with the antibody, then binding to coated human RANK (8 ug/ml) detected; blocked partner RANK
[8] = target: T1, RANKL expressed on the surface of 293 …; assay: flow cytometry (MFI) on RANKL-transfected 293 cells; remark: listed apart in the source
human RANKL protein [9] = target: T2, human RANKL protein; assay: competition ELISA: RANKL (0.5 ug/ml) pre-incubated with the antibody, then binding to coated human RANK (8 ug/ml) detected; blocked partner RANK; remark: listed apart in the source
[10] = target: T1, RANKL expressed on the surface of 293 …; assay: flow cytometry (MFI) on RANKL-transfected 293 cells; remark: listed apart in the source
human RANKL protein [11] = target: T2, human RANKL protein; assay: competition ELISA: RANKL (0.5 ug/ml) pre-incubated with the antibody, then binding to coated human RANK (8 ug/ml) detected; blocked partner RANK; remark: listed apart in the source
human RANKL protein [12] = target: T2, human RANKL protein; assay: as above; remark: listed apart in the source
human RANKL protein [13] = target: T2, human RANKL protein; assay: ELISA on RANKL protein (OD450nm)

B1: humanized clone 408 anti-RANKL antibody (antibody, V domains shown)
VH: EVQLVESGGGLVQPGGSLRLSCAVSGFSLSTDVVSWVRQAPGKGLEWIGYTWNGGATFYASWAKGRFTFSKDSSKNTVYLQMNSPRAEDTAVYFCARGYNGMDPWGPGTLVTVSS
VL: DIQMTQSPSSLSASVGDRVTIKCQASQNIGSNLAWYQQKPGKPPKLLISKASTLASGVPSRFSGSGSGTDFTLTISSLQPEDFATYYCQQGYTTKNVVNPFGGGTKVEIK
- EC50 [1]: 0.731 µg/mL
- IC50 (human RANKL protein [2]): 0.096 µg/mL

B2: humanized clone EBI-51-22 anti-RANKL antibody (antibody, V domains shown)
VH: EVQLVESGGGLVQPGGSLRLSCAVSGFSLSTDVLSWVRQAPGKGLEWIGYTWSGGSTYYASWAKGRFTISKDSSKNTVYLQMNSPRAEDTAVYFCARGFNPFDPWGPGTLVTVSS
VL: DIQMTQSPSSLSASVGDRVTIKCQASQNIGSNLAWYQQKPGKRPKLLIYRASTLASGVPSRFSGSGSGTDFTLTISSLQPEDFATYYCQQGYSAGNVDNNAFGGGTKVEIK
notes: also called humanized EBI-51-22; humanized EBI51-22
- EC50 [1]: 0.361 µg/mL
- IC50 (human RANKL protein [2]): 0.127 µg/mL

B3: clone 23 rabbit anti-RANKL antibody (antibody, V domains shown)
VH: QEQLKESGGGLVTPGGTLTLTCTASGFSLSSDGMSWVRQAPGKGLEWIGYIYSGSSPYYANWAKGRFTISKTSSTTVDLKMTSLTTEDTATYFCARHGSGGGWYLDIWGPGTLVTVSS
VL: AYDMIQTPASVEVAVGGTVTINCQASQTIGTNLAWYQQKPGQRPKLLIYAASTLPSGVSSRFKGSGSGTQFTLTISDVECSDAATYYCQQAYSVGNVDNAFGGGTEVVVK
notes: also called RabMAb 23; parent 23 rabbit antibody
- EC50 [3]: 0.1 µg/mL
- Kd (human RANKL protein [4]): 0.162 nM
- koff (human RANKL protein [4]): 0.000154 s⁻¹
- kon (human RANKL protein [4]): 950000 M⁻¹ s⁻¹
- IC50 in a RAW cell assay (TRAP activity, OD 405 nM) (human RANKL protein [5]): 0.00171 µg/mL
- IC50 (human RANKL protein [2]): 0.041 µg/mL
- EC50 [6]: 0.0903 µg/mL
- IC50 (human RANKL protein [7]): 0.0111 µg/mL

B4: clone 547 rabbit anti-RANKL antibody (antibody, V domains shown)
VH: QEQLKESGGGLVTPGGTLTLTCTASGFSLSSNGMSWVRQAPGKGLEWIGYIYSGSSPYYASWAKGRFTISKTSSTTVDLKMTSLTTEDTAKYFCARHVSGGGWYLDIWGPGTLVTVSL
VL: DMIQTPASVEVAVGGTVTINCQASQSIGSNLAWYQQKPGQRPKLLIYGASTLASGVSSRVKGSGSGTQFTFTISDVECTDAATYYCQQAYSISNVDNAFGGGTEVVVK
- EC50 [8]: 0.398 µg/mL
- IC50 (human RANKL protein [9]): 0.0812 µg/mL

B5: clone EBI-51-22 rabbit anti-RANKL antibody (antibody, V domains shown)
VH: QSVEESGGRLVTPGTLLTLTCTVSGFSLSTDVLSWVRQAPGKGLEWIGYTWSGGSTYYASWAKGRFTISKTSSTTVDLKITSPTTEDTATYFCARGFNPFDPWGPGTLVTVSS
VL: DMTQTPASVSDPVGGTVTIKCQASQNIGSNLAWYQQKPGQRPKLLIYRASTLASGVSSRFKGSGSGTQFTLTISDLECADAATYYCQQGYSAGNVDNNAFGGGTEVVVK
- Kd (human RANKL protein [4]): 0.312 nM
- koff (human RANKL protein [4]): 0.000275 s⁻¹
- kon (human RANKL protein [4]): 880000 M⁻¹ s⁻¹
- EC50 [1]: 0.4 µg/mL
- IC50 in a RAW cell assay (TRAP activity, OD 405 nM) (human RANKL protein [5]): 0.0036 µg/mL
- IC50 (human RANKL protein [2]): 0.083 µg/mL
- EC50 [10]: 0.083 µg/mL
- IC50 (human RANKL protein [11]): 0.0439 µg/mL

B6: clone 480 rabbit anti-RANKL antibody (antibody, V domains shown)
VH: QSLEESGGRLVTPGGSLTLTCTVSGFSLSNYEINWVRQAPGKGLEWIGYIDVGSGTWYASWAKGRFTISKTSTTVDLKITSPTTGDTATYFCSRSYNPMDLWGPGTLVTVSS
VL: DMTQTPASVEVAVGGTVTIKCQASQNIGSNLAWYQQKPGQRPKLLIYSASTLASGVPSRFKGSGSGTQFTLTISGVQCDDAATYYCQQGYSVGNVNNAFGGGTEVVVK
- EC50 [8]: 0.172 µg/mL
- IC50 (human RANKL protein [9]): 0.0284 µg/mL

B7: clone 408 rabbit anti-RANKL antibody (antibody, V domains shown)
VH: QSVEESGGRLVTPGTPLTLTCTVSGFSLSTDVVSWVRQAPGKGLEWIGYTWNGGATFYASWAKGRFTFSKTSTTVDLKITSPTTEDTATYFCARGYNGMDPWGPGTLVTVSS
VL: DMTQTPASVEAAVGGAVTIKCQASQNIGSNLAWYHQKPGQPPKLLISKASTLASGVPSRFKGSGSGTEFTLAISDLECADAATYYCQQGYTTKNVVNPFGGGTEVVVK
- Kd (human RANKL protein [4]): 0.432 nM
- koff (human RANKL protein [4]): 0.000262 s⁻¹
- kon (human RANKL protein [4]): 607000 M⁻¹ s⁻¹
- IC50 (human RANKL protein [12]): 0.058 µg/mL
- EC50 [8]: 0.0898 µg/mL
- EC50 [1]: 0.303 µg/mL
- IC50 in a RAW cell assay (TRAP activity, OD 405 nM) (human RANKL protein [5]): 0.00644 µg/mL
- IC50 (human RANKL protein [2]): 0.098 µg/mL

B8: humanized clone 23 antibody, VH 23HZD-1 HC with humanized VL 23 Vk (antibody, V domains shown)
VH: EVQLVESGGGLVQPGGSLRLSCAASGFSLSSDGMSWVRQAPGKGLEWIGYIYSGSSPYYANWAKGRFTISKDSSKNTVYLQMNSLRAEDTAVYFCARHGSGGGWYLDIWGPGTLVTVSS
VL: DIQMTQSPSSLSASVGDRVTINCQASQTIGTNLAWYQQKPGKRPKLLIYAASTLPSGVPSRFSGSGSGTDFTLTISSLQPEDFATYYCQQAYSVGNVDNAFGGGTKVEIK
notes: also called humanized 23 Vk; 23LHZD
- EC50 [3]: 0.414 µg/mL
- IC50 (human RANKL protein [2]): 0.112 µg/mL

B9: humanized clone 23 antibody, VH 23HZD-1 HC with humanized VL 23 Vkb, IgG1 (antibody, V domains shown)
VH: EVQLVESGGGLVQPGGSLRLSCAASGFSLSSDGMSWVRQAPGKGLEWIGYIYSGSSPYYANWAKGRFTISKDSSKNTVYLQMNSLRAEDTAVYFCARHGSGGGWYLDIWGPGTLVTVSS
VL: DIQMTQSPSSLSASVGDRVTINCQASQSIGSNLAWYQQKPGKRPKLLIYAASTLPSGVPSRFSGSGSGTDFTLTISSLQPEDFATYYCQQAYSVGNVDNAFGGGTKVEIK
notes: also called h23 IgG1
- EC50 (human RANKL protein [13]): 0.0425 µg/mL

B10: humanized clone 23 antibody, VH 23HZD-1 HC with humanized VL 23 Vkb, IgG2 (antibody, V domains shown)
VH: EVQLVESGGGLVQPGGSLRLSCAASGFSLSSDGMSWVRQAPGKGLEWIGYIYSGSSPYYANWAKGRFTISKDSSKNTVYLQMNSLRAEDTAVYFCARHGSGGGWYLDIWGPGTLVTVSS
VL: DIQMTQSPSSLSASVGDRVTINCQASQSIGSNLAWYQQKPGKRPKLLIYAASTLPSGVPSRFSGSGSGTDFTLTISSLQPEDFATYYCQQAYSVGNVDNAFGGGTKVEIK
notes: also called humanized 23 vkb; humanized 23 VKB
- EC50 [3]: 0.947 µg/mL
- EC50 (human RANKL protein [13]): 0.0238 µg/mL
- IC50 (human RANKL protein [2]): 0.081 µg/mL

B11: h23n IgG2 humanized clone 23 antibody (antibody, V domains shown)
VH: QEQLVESGGGLVQPGGSLRLSCVASGFSLSSDGMSWVRQAPGKGLEWIGYIYSGSSPYYANWAKGRFTISKDSSTNTVFLQMNSLRAEDTAVYFCARHGDGGGWYLDIWGPGTLVTVSS
VL: DIQMTQSPSSLSASVGDRVTINCQASQSIGSNLAWYQQKPGKAPKLLIYAASTLPSGVSSRFSGSGSGTDFTLTINSLEAEDAATYYCQQAYSVGNVDNAFGGGTKVEIK
notes: IgG2; also called h23n VH and VL
- EC50 (human RANKL protein [13]): 0.0117 µg/mL

B12: clone 193 rabbit anti-RANKL antibody (antibody, V domains shown)
VH: QSVEESGGRLVTPGTPLTLTCTFSGFSLSNNAINWVRQAPGKGLEWIGYTWSGGGTYCASWAKGRFTISKTSSTTVDLKMTSLTTEDTATYFCARAYDSEWDRLDLWGQGTLVTVSS
VL: VMTQTPASVSGPVGGTVTIKCQASQSIGSNLGWYQQKPGQPPKLLIFSASNLESGVPSRFKGSGSGTQFTLTISDLECDDAATYYCQQGYTTNNVLNAFAGGTEVVVK
- EC50 [6]: 0.135 µg/mL
- IC50 (human RANKL protein [7]): 0.0665 µg/mL

B13: clone 191 rabbit anti-RANKL antibody (antibody, V domains shown)
VH: QSVEESGGRLVTPGTPLTLTCTVSGFSLYTNLINWVRQAPGKGLEWIGYINYGASAYYANWAKGRFTISQTSSTTVDLKMTSLTIEDTATYFCARGYGNDWDRLDLWGQGTLVTVSS
VL: IVMTQTPSPVSGAVGGTVTINCQASQSIGSNLAWYQQKPGQPPKLLIYSASILASGAPSRVSGSGYGTEFTLTISGVQCADAATYYCQQGYTTNADNIFGGGTEVVVE
- EC50 [6]: 0.174 µg/mL
- IC50 (human RANKL protein [7]): 0.0823 µg/mL
